Positions count from the first letter of the chain named.
How the values were obtained:
[1] = molecular target: T1, rhVEGF (R&D Systems Cat. No. 293-VE) (human, UniProt P15692 181-395); experiment: SPR (Biacore), antibody on captured Ang-2, then rhVEGF
T1 construct: Analyte in the Biacore assays; also called VEGF-A

[2] = molecular target: T2, full-length VEGF165-His protein (R&D Systems) (human, UniProt P15692 181-395); experiment: VEGF binding ELISA, coated VEGF165
T2 construct: also called recombinant human VEGF165; VEGF-A; not shown: His tag
T2 sequence (P15692 other isoform, or with tags, fused parts or gaps): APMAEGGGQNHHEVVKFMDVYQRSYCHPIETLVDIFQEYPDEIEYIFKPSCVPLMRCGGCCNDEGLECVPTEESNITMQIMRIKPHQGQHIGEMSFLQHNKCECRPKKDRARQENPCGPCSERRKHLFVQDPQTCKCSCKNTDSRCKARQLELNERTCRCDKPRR

[3] = molecular target: T3, full-length Angiopoietin-2-His protein (R&D Systems #623-AN/CF or in house produced material) (human, UniProt O15123 19-496, limits assumed); experiment: SPR (Biacore), antibody captured by secondary antibody, ANG-2 analyte; KD only a relative estimation
T3 construct: also called human ANG-2; ANG-2-His; not shown: His tag
T3 sequence: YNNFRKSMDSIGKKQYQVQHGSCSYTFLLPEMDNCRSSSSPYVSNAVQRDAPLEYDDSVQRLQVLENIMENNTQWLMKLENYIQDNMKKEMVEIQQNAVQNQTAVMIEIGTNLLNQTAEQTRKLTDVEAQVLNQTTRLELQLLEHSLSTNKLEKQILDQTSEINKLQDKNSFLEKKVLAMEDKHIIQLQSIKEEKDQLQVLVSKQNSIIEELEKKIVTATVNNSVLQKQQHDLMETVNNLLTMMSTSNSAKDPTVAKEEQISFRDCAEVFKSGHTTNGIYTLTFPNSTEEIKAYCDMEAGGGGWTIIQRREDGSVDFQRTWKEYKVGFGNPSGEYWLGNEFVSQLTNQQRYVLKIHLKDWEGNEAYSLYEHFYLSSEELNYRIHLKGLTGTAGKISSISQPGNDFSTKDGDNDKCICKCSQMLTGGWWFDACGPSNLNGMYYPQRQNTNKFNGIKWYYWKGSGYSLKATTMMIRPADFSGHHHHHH

[4] = molecular target: T3, full-length Angiopoietin-2-His protein …; experiment: ANG-2 binding ELISA, coated ANG-2
[5] = molecular target: T3, full-length Angiopoietin-2-His protein …; experiment: SPR (Biacore T100), antibody captured via anti-hIgG-Fc, ANG-2-His analyte, 25 C; relative estimation
[6] = molecular target: T3, full-length Angiopoietin-2-His protein …; experiment: inhibition of huANG-2 binding to coated Tie-2 (ELISA)
[7] = molecular target: T4, Angiopoietin-1-His (R&D systems #923-AN) (human, UniProt Q15389 20-498, limits assumed); experiment: ANG-1 binding ELISA, coated ANG-1
T4 construct: also called human ANG-1; hANG-1; not shown: His tag
T4 sequence: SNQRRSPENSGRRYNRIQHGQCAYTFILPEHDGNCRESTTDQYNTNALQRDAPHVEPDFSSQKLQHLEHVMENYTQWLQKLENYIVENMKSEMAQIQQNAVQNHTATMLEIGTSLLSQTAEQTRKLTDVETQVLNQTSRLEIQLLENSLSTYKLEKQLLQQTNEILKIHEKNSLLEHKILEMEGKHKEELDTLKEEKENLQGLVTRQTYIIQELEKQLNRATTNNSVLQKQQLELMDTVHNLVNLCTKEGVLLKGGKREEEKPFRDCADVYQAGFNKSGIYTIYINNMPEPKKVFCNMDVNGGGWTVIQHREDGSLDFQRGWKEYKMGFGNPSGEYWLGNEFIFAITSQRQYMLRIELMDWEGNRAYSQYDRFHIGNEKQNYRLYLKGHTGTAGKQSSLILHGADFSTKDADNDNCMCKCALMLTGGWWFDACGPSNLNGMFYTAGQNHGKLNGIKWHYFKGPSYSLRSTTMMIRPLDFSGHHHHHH

[8] = molecular target: T1, rhVEGF (R&D Systems Cat. No. 293-VE); experiment: SPR (Biacore T100), antibody captured via anti-human IgG, rhVEGF analyte, 37 C
[9] = molecular target: T3, full-length Angiopoietin-2-His protein …; experiment: cell-based or functional assay
[10] = molecular target: T1, rhVEGF (R&D Systems Cat. No. 293-VE); experiment: SPR (Biacore), hVEGF affinity

T1 sequence (P15692 other isoform, or with tags, fused parts or gaps limits assumed): as the sequence (P15692 other isoform, or with tags, fused parts or gaps) above

B1: <ANG-2> Mab536 (antibody, V domains shown)
VH: EVQLVQSGGGVVQPGRSLRLSCAASGFTFSSYGMHWVRQAPGKGLEWVSYISSSGSTIYYADSVKGRFTISRDNAKNSLYLQMNSLRAEDTAVYYCARDLLDYDILTGYGYWGQGTLVTVSS
VL: not shown
notes: monospecific 'standard' IgG1 antibody; also called Mab536 (1000)
[1]
  binding result: no binding (tested: 150 nM VEGF)
[2]
  binding result: no binding
[3]
  Kd: 1.6 nM
[4]
  EC50: 0.133 µg/mL
[5]
  Kd: 3 nM
[6]
  IC50: 0.015 µg/mL
[7]
  EC50: 2.54 µg/mL

B2: disulfide-stabilized <VEGF-ANG-2> TvAb6 (bispecific antibody, IgG1)
heavy (part 1 of 2): EVQLVESGGGLVQPGGSLRLSCAASGFTISDYWIHWVRQAPGKGLEWVAGITPAGGYTYYADSVKGRFTISADTSKNTAYLQMNSLRAEDTAVYYCARFVFFLPYAMDYWGQGTLVTVSS
heavy (part 2 of 2): not shown
light: DIQMTQSPSSLSASVGDRVTITCRASQDVSTAVAWYQQKPGKAPKLLIYSASFLYSGVPSRFSGSGSGTDFTLTISSLQPEDFATYYCQQGYGNPFTFGQGTKVEIK
notes: Tetravalent: full-length IgG1 G6-31 with a VH44/VL100 disulfide-stabilized Mab536 scFv at the C-terminus of each heavy chain; also called TvAb6 (2331); No. 2331; not shown: IgG1 heavy chain constant region; light chain constant region
[3]
  Kd: 4.4 nM
[8]
  Kd: 0.00153 nM
  koff: 7.24e-06 s⁻¹
  kon: 4.72e+06 M⁻¹ s⁻¹
  t1/2: 26.6 h

B3: <ANG-2> Ang2k_LC08 (antibody, V domains shown)
VH: QVQLVESGGGVVQPGGSLRLSCAASGFTFSSYGMHWVRQAPGKGLEWVAVISYDGSNKYYADSVKGRFTISRDNSKNTLYLQMNSLRAEDTAVYYCAKPTLDIYMGYYYGMDVWGQGTTVTVSS
VL: QPVLTQPPSASGAPGQRVTISCSGFASNIGSNSVNWYQQVPGTAPKLLIYNNDQRPSGVPDRFSGSRSGTSASLAISGLQSEDEADYYCAAWDDSLNGPVFGGGTKLTVLG
notes: Parent monospecific antibody; also called <ANG-2>Ang2i-LC08
[9]
  IC50, ANGPT2 stimulated Tie2 phosphorylation (HEK293-Tie2 cells), first experiment: ~0.499 µg/mL
  IC50, ANGPT2 stimulated Tie2 phosphorylation (HEK293-Tie2 cells), second experiment: ~0.399 µg/mL
[4]
  EC50: 0.105 µg/mL
[7]
  EC50: 4.04 µg/mL

B4: Bevacizumab-LC06-VH-VL (bispecific antibody, human IgG1, kappa)
heavy 1: not shown
heavy 2: not shown
light 1: QPGLTQPPSVSVAPGQTARITCGGNNIGSKSVHWYQQKPGQAPVLVVYDDSDRPSGIPERFSGSNSGNTATLTISRVEAGDEADYYCQVWDSSSDHYVFGTGTKVTVLRTVAAPSVFIFPPSDEQLKSGTASVVCLLNNFYPREAKVQWKVDNALQSGNSQESVTEQDSKDSTYSLSSTLTLSKADYEKHKVYACEVTHQGLSSPVTKSFNRGEC
light 2: EVQLVESGGGLVQPGGSLRLSCAASGYTFTNYGMNWVRQAPGKGLEWVGWINTYTGEPTYAADFKRRFTFSLDTSKSTAYLQMNSLRAEDTAVYYCAKYPHYYGSSHWYFDVWGQGTLVTVSSASVAAPSVFIFPPSDEQLKSGTASVVCLLNNFYPREAKVQWKVDNALQSGNSQESVTEQDSKDSTYSLSSTLTLSKADYEKHKVYACEVTHQGLSSPVTKSFNRGEC
notes: Bispecific, bivalent domain exchanged antibody (VH-VL exchange); also called Bevacizumab-LC06-CM-VH-VL
[10]
  Kd: 0.1 nM

B5: Bevacizumab-LC06-VH-VL-SS (bispecific antibody, human IgG1, kappa)
heavy 1: not shown
heavy 2: not shown
light 1: B4 light 1 with T101C
light 2: B4 light 2
notes: Bispecific, bivalent domain exchanged antibody (VH-VL exchange and an additional VH44 VL100 disulfide bridge)
[10]
  Kd: 0.1 nM

B6: <ANG-2>Ang2i_LC06 (antibody, V domains shown)
VH: not shown
VL: QPGLTQPPSVSVAPGQTARITCGGNNIGSKSVHWYQQKPGQAPVLVVYDDSDRPSGIPERFSGSNSGNTATLTISRVEAGDEADYYCQVWDSSSDHYVFGTGTKVTVLG
notes: Parent monospecific antibody
[9]
  IC50, ANGPT2 stimulated Tie2 phosphorylation (HEK293-Tie2 cells), first experiment: ~0.508 µg/mL
  IC50, ANGPT2 stimulated Tie2 phosphorylation (HEK293-Tie2 cells), second experiment: ~0.424 µg/mL
[4]
  EC50: 0.084 µg/mL
[7]
  EC50: > 8 µg/mL

B7: <ANG-2>Ang2i_LC07 (antibody, V domains shown)
VH: not shown
VL: QPVLTQSPSVSVAPGETARVACGGNFIGGKSVHWYQQKPGQAPVLVIYDDSERPSGIPERISGSNSGNTATLIITRAEAGDEADYHCQVWDSDSDQGVFGTGTKLTVLG
notes: Parent monospecific antibody
[4]
  EC50: 3.01 µg/mL
[7]
  EC50: > 8 µg/mL
